{
  "source": "patent US11103459B2",
  "about": "“Method of drug formulation based on increasing the affinity of active agents for crystalline microparticle surfaces” (MannKind Corporation, priority 2005, dated 2021)",
  "key": {"[1]": {"conditions": "in the presence of NaSCN, NaClO4, Na2SO4, NaNO3 and Na citrate; cited from earlier work"}, "[2]": {"test": "Active agent detected in reconstituted microparticle-free control samples (precipitation, HPLC)", "format": "physicochemical", "description": "(§1) Unbound active agent in the supernatant was filtered off the suspension. […] The amount of active agent in both the supernatant and reconstituted fractions was quantitated by HPLC. A series of experiments were conducted in which conditions employed included use of additives such as salts, osmolytes, chaotropes and kosmotropes, and alcohols.\nSimilar observations were disclosed in U.S. Provisional Application Ser. No. 60/744,882.\nThe effect of TFE was less pronounced, and at the lower pHs tested was detrimental. […] The mass ratios in FIGS. 3C-D reflect both adsorbed and precipitated active agent although precipitation is an increasingly minor component as the pH decreased toward 3.0.\n(§2) The amount of active agent detected in reconstituted microparticle-free control samples as a function of pH and NaCl concentration was assessed. The pH was controlled with a 20 mM potassium phosphate/20 mM potassium acetate mixture."}, "[3]": {"test": "Active agent/FDKP microparticle adsorption studies (loading curves, HPLC)", "format": "physicochemical", "conditions": "for binding of GLP-1 onto the FDKP microparticle surface: 100 mM TMAO", "description": "Aqueous samples at varying pH and at 20° C. (unless otherwise noted) were analyzed.\nThe association of active agent with diketopiperazine (DKP) particles in suspension was evaluated by conducting adsorption studies.\nas §1\nThe concentration of the chaotrope or kosmotrope in the samples was held constant at 100 mM and the pH varied from 2.0 to 5.0. Chaotropes or kosmotropes were selected from the following: NaSCN, CsCl, Na2SO4, (CH3)3N—HCl, […], Na Citrate, and NaClO4. The control indicates no chaotrope or kosmotrope were added.\nThe concentration of the osmolyte (stabilizer) in the samples was held constant at 100 mM and the pH varied from about 2.0 to about 5.0. The osmolytes were selected from hexylene-glycol (Hex-Gly), trehalose, glycine, PEG, TMAO, mannitol and proline; the control indicates no osmolyte.\nIn assessing the effect of modifiers on the active agent that allows for adsorption to the microparticle surface by a hydrophobic mechanism, the effect of alcohols were examined. […] The effect of each alcohol was observed over a pH range of 2.0 to 5.0. The alcohols used were trifluoroethanol (TFE) and hexafluoroisopropanol (HFIP). Each alcohol was evaluated at varying concentrations which include 5%, 10%, 15%, or 20% v/v.\nas §2"}},
  "note": "Like-named read-outs stand apart in the source and are kept apart here. Where no end group is shown, it is not given here.",
  "data": [
    {"substance": "glucagon-like peptide 1 [GLP-1]", "values": [
      {"measurement": "GLP-1 peptide detected in reconstituted microparticle-free control samples", "setting": "[1]", "value": "0.02 to 0.04", "unit": "mg/mL"},
      {"measurement": "GLP-1 peptide detected in reconstituted microparticle-free control samples", "setting": "[2]; 10% HFIP and TFE, pH 4.0", "value": "0.13 to 0.19", "unit": "mg/mL"},
      {"measurement": "GLP-1 peptide detected in reconstituted microparticle-free control samples", "setting": "[2]; 10% HFIP or TFE, pH 2.0", "value": "no GLP-1 was detected"},
      {"measurement": "affinity for adsorption of GLP-1 onto FDKP particle surface", "setting": "[3]; 100 mM PEG and proline, pH 2.0 to 4.0", "value": "improved the affinity"},
      {"measurement": "binding of GLP-1 onto the FDKP microparticle surface", "setting": "[3]; pH 2.0", "value": "more effective than PEG or proline"},
      {"measurement": "binding of GLP-1 onto the FDKP microparticle surface", "setting": "[3]; pH 3.0 and above", "value": "modestly detrimental"},
      {"measurement": "affinity of GLP-1 for the FDKP microparticles", "setting": "[3]; 100 mM chaotropes and kosmotropes, pH 2.0-4.0, greater effect at lower pH", "value": "improved affinity"},
      {"measurement": "affinity of GLP-1 for the microparticle surface", "setting": "[3]; HFIP and TFE at 5% and 10%, pH 2.0-5.0", "value": "improved affinity"},
      {"measurement": "binding of GLP-1 to FDKP particles", "setting": "[3]; NaCl, pH 4.0 and above", "value": "reduction in binding"},
      {"measurement": "effect of TFE on GLP-1 affinity for the microparticle surface", "setting": "[3]; TFE, lower pHs tested", "value": "detrimental"},
      {"measurement": "binding (adsorption) of GLP-1 to FDKP particles", "setting": "[3]; all NaCl concentrations tested, pH about 2.0 to about 3.5", "value": "enhanced binding"}
    ]},
    {"substance": "insulin [reference compound]", "values": [
      {"measurement": "affinity of insulin for the FDKP microparticle surface vs control", "setting": "[3]; 100 mM chaotropes and kosmotropes, pH 3.0, […] insulin, 5 mg/mL FDKP", "value": "improved the affinity"},
      {"measurement": "affinity of insulin for the FDKP microparticle surface vs control", "setting": "[3]; 100 mM chaotropes and kosmotropes, pH 4", "value": "this effect was not observed"},
      {"measurement": "adsorption of insulin to the FDKP microparticle surface vs control", "setting": "[3]; 100 mM chaotropes and kosmotropes, pH 5.0 (insulin precipitated)", "value": "interfered with the adsorption"},
      {"measurement": "affinity of insulin for the FDKP particle surface", "setting": "[3]; 100 mM osmolytes (PEG, glycine, trehalose, mannitol, Hex-Gly), pH 3.0 to 5.0", "value": "significantly improved affinity"},
      {"measurement": "binding (adsorption) of insulin onto FDKP particles", "setting": "[3]; 100-500 mM NaCl, pH about 2.5 to about 3.5", "value": "increased binding"},
      {"measurement": "adsorption of insulin to the FDKP particle", "setting": "[3]; all NaCl concentrations tested, pH about 4.0 to about 5.0", "value": "reduction in the adsorption"}
    ]},
    {"substance": "ghrelin (GSSFLSPEHQRVQQRKESKKPPAKLQPR; ends and bridges not checked; UniProt Q9UBU3 24-51, looked up)", "values": [
      {"measurement": "affinity of ghrelin for the microparticle surface vs control", "setting": "[3]; 100 mM mannitol, PEG, glycine, Hex-Gly, trehalose, pH about 4.0 to 5.0", "value": "greater affinity"},
      {"measurement": "affinity of ghrelin for the microparticle surface (mass ratio of ghrelin to FDKP particles)", "setting": "[3]; HFIP and TFE at 5%, 10%, 15%, 20% v/v, pH 2.0-4.0", "value": "greatly improved affinity"}
    ]},
    {"substance": "parathyroid hormone [PTH]", "values": [
      {"measurement": "binding of PTH to the FDKP particles", "setting": "[3]; 250 to 1000 mM NaCl, pH about 2.0 to about 3.5", "value": "enhanced binding"},
      {"measurement": "binding of PTH to the microparticle", "setting": "[3]; in the presence of salt, pH about 3.5 to about 5.0", "value": "decreased"},
      {"measurement": "affinity of PTH for the FDKP microparticle surface", "setting": "[3]; strong chaotropes NaSCN and NaClO4, pH 4.0 to about 4.5", "value": "greater"}
    ]}
  ]
}
